These results are taken from article PMC6168201 (Neuron, 2018).

The series “SEC” concerns the molecule itself. The series can be described thus: SEC. (In gel filtration, larger molecules generally elute earlier.)
The series “SEC-MALS” deals with the molecule itself. The experiment in a line: SEC-MALS.
The series “AUC” concerns the molecule itself. The series can be described thus: AUC.

B1: Pcdh15 EC1-3 Asp255Lys/Lys345Asp (domain or fragment)
chain: not shown
On to B1, for which the “stoichiometry N” value in the series “SEC” stood at 2.

B2: Pcdh15 EC1-3 (wild type) (domain or fragment)
chain: not shown
For B2, in “SEC-MALS”, the “stoichiometry N” value worked out at 2. This protein also yielded a Kd in the series “AUC” of 1.2 µM.

B3: Pcdh15 EC1-3 Leu138Phe (domain or fragment)
chain: not shown
In “AUC”, B3 returned a Kd of 15.3 µM.

One may read the stoichiometry N as a count of units in the complex or per binding partner. Usually Kd stands for the equilibrium constant for the complex coming apart. The low end stands for higher affinity, the high end for lower affinity.
